The text below walks through data of the Human Domainome abundance scans (Beltran et al. 2025).

B1: Death-inducer obliterator 1, residues 263 to 321; numbered along this chain, Q9BTC0 (parent)
chain: GYDPNALYCICRQPHNNRFMICCDRCEEWFHGDCVGISEARGRLLERNGEDYICPNCTI

± gives the uncertainty stated by the source.

The variants in the data set derive from B1. In words: abundance fitness (aPCA) (normalised: wild type 0, dead -1); higher = more abundant; growth selection in yeast, the domain comes from the species named. The conditions noted are these: Homo sapiens.
Turning to GYDPNALYCVCRQPHNNRFMICCDRCEEWFHGDCVGISEARGRLLERNGEDYICPNCTI [I10V], the abundance fitness is -0.116 ± 0.049.

On to GYDPNALYCACRQPHNNRFMICCDRCEEWFHGDCVGISEARGRLLERNGEDYICPNCTI [I10A], for which the abundance fitness is -0.084 ± 0.068.

In the case of GYDPNALYCWCRQPHNNRFMICCDRCEEWFHGDCVGISEARGRLLERNGEDYICPNCTI [I10W], the abundance fitness is -0.169 ± 0.11.

As to GYDPNALYCECRQPHNNRFMICCDRCEEWFHGDCVGISEARGRLLERNGEDYICPNCTI [I10E], the abundance fitness was -0.143 ± 0.073.

As for GYDPNALYCMCRQPHNNRFMICCDRCEEWFHGDCVGISEARGRLLERNGEDYICPNCTI [I10M], the abundance fitness is 0.035 ± 0.065.

For GYDPNALYCQCRQPHNNRFMICCDRCEEWFHGDCVGISEARGRLLERNGEDYICPNCTI [I10Q], the abundance fitness is -0.182 ± 0.22.

For GYDPNALYCSCRQPHNNRFMICCDRCEEWFHGDCVGISEARGRLLERNGEDYICPNCTI [I10S], the abundance fitness worked out at 0.018 ± 0.06.

For GYDPNALYCHCRQPHNNRFMICCDRCEEWFHGDCVGISEARGRLLERNGEDYICPNCTI [I10H], the abundance fitness stood at 0.105 ± 0.077.

On to GYDPNALYCGCRQPHNNRFMICCDRCEEWFHGDCVGISEARGRLLERNGEDYICPNCTI [I10G], for which the abundance fitness was -0.217 ± 0.11.

Consider GYDPNALYCTCRQPHNNRFMICCDRCEEWFHGDCVGISEARGRLLERNGEDYICPNCTI [I10T], for which the abundance fitness was found to be 0.017 ± 0.063.

GYDPNALYCLCRQPHNNRFMICCDRCEEWFHGDCVGISEARGRLLERNGEDYICPNCTI [I10L]: the abundance fitness is -0.105 ± 0.048.

In the case of GYDPNALYCKCRQPHNNRFMICCDRCEEWFHGDCVGISEARGRLLERNGEDYICPNCTI [I10K], the abundance fitness was -0.064 ± 0.087.

Consider GYDPNALYCDCRQPHNNRFMICCDRCEEWFHGDCVGISEARGRLLERNGEDYICPNCTI [I10D], for which the abundance fitness is -0.418 ± 0.25.

GYDPNALYCYCRQPHNNRFMICCDRCEEWFHGDCVGISEARGRLLERNGEDYICPNCTI [I10Y]: the abundance fitness is -0.449 ± 0.13.

As to GYDPNALYCNCRQPHNNRFMICCDRCEEWFHGDCVGISEARGRLLERNGEDYICPNCTI [I10N], the abundance fitness turned out to be 0.011 ± 0.09.

Regarding GYDPNALYCIGRQPHNNRFMICCDRCEEWFHGDCVGISEARGRLLERNGEDYICPNCTI [C11G], the abundance fitness was -1.15 ± 0.2.

In the case of GYDPNALYCINRQPHNNRFMICCDRCEEWFHGDCVGISEARGRLLERNGEDYICPNCTI [C11N], the abundance fitness is -0.708 ± 0.21.

GYDPNALYCIERQPHNNRFMICCDRCEEWFHGDCVGISEARGRLLERNGEDYICPNCTI [C11E]: the abundance fitness is -0.622 ± 0.093.

Consider GYDPNALYCIMRQPHNNRFMICCDRCEEWFHGDCVGISEARGRLLERNGEDYICPNCTI [C11M], for which the abundance fitness was -0.71 ± 0.11.

Turning to GYDPNALYCIFRQPHNNRFMICCDRCEEWFHGDCVGISEARGRLLERNGEDYICPNCTI [C11F], the abundance fitness was -0.724 ± 0.28.

For the variant GYDPNALYCIDRQPHNNRFMICCDRCEEWFHGDCVGISEARGRLLERNGEDYICPNCTI [C11D], the abundance fitness is -0.381 ± 0.19.

Turning to GYDPNALYCIQRQPHNNRFMICCDRCEEWFHGDCVGISEARGRLLERNGEDYICPNCTI [C11Q], the abundance fitness is -0.609 ± 0.16.

Consider GYDPNALYCIPRQPHNNRFMICCDRCEEWFHGDCVGISEARGRLLERNGEDYICPNCTI [C11P], for which the abundance fitness was -0.999 ± 0.16.

With GYDPNALYCIIRQPHNNRFMICCDRCEEWFHGDCVGISEARGRLLERNGEDYICPNCTI [C11I], the abundance fitness is -0.785 ± 0.12.

Regarding GYDPNALYCILRQPHNNRFMICCDRCEEWFHGDCVGISEARGRLLERNGEDYICPNCTI [C11L], the abundance fitness is -0.861 ± 0.11.

With GYDPNALRCICRQPHNNRFMICCDRCEEWFHGDCVGISEARGRLLERNGEDYICPNCTI [Y8R], the abundance fitness turned out to be 0.115 ± 0.053.

GYDPNALSCICRQPHNNRFMICCDRCEEWFHGDCVGISEARGRLLERNGEDYICPNCTI [Y8S]: the abundance fitness was 0.125 ± 0.056.

Consider GYDPNALMCICRQPHNNRFMICCDRCEEWFHGDCVGISEARGRLLERNGEDYICPNCTI [Y8M], for which the abundance fitness worked out at 0.07 ± 0.079.

Consider GYDPNALKCICRQPHNNRFMICCDRCEEWFHGDCVGISEARGRLLERNGEDYICPNCTI [Y8K], for which the abundance fitness came to 0.115 ± 0.059.

As to GYDPNALPCICRQPHNNRFMICCDRCEEWFHGDCVGISEARGRLLERNGEDYICPNCTI [Y8P], the abundance fitness was 0.059 ± 0.075.

On to GYDPNALVCICRQPHNNRFMICCDRCEEWFHGDCVGISEARGRLLERNGEDYICPNCTI [Y8V], for which the abundance fitness is 0.041 ± 0.044.

With GYDPNALQCICRQPHNNRFMICCDRCEEWFHGDCVGISEARGRLLERNGEDYICPNCTI [Y8Q], the abundance fitness was -0.019 ± 0.081.

For GYDPNALLCICRQPHNNRFMICCDRCEEWFHGDCVGISEARGRLLERNGEDYICPNCTI [Y8L], the abundance fitness was 0.048 ± 0.047.

With GYDPNALICICRQPHNNRFMICCDRCEEWFHGDCVGISEARGRLLERNGEDYICPNCTI [Y8I], the abundance fitness was 0.165 ± 0.12.

Regarding GYDPNALFCICRQPHNNRFMICCDRCEEWFHGDCVGISEARGRLLERNGEDYICPNCTI [Y8F], the abundance fitness is 0.035 ± 0.12.

In the case of GYDPNALNCICRQPHNNRFMICCDRCEEWFHGDCVGISEARGRLLERNGEDYICPNCTI [Y8N], the abundance fitness was found to be 0.192 ± 0.088.

With GYDPNALTCICRQPHNNRFMICCDRCEEWFHGDCVGISEARGRLLERNGEDYICPNCTI [Y8T], the abundance fitness is 0.264 ± 0.1.

Turning to GYDPNALECICRQPHNNRFMICCDRCEEWFHGDCVGISEARGRLLERNGEDYICPNCTI [Y8E], the abundance fitness was determined as 0.038 ± 0.12.

As to GYDPNALDCICRQPHNNRFMICCDRCEEWFHGDCVGISEARGRLLERNGEDYICPNCTI [Y8D], the abundance fitness turned out to be 0.135 ± 0.1.

Take GYDPNALCCICRQPHNNRFMICCDRCEEWFHGDCVGISEARGRLLERNGEDYICPNCTI [Y8C]: the abundance fitness stood at 0.069 ± 0.092.

On to GYDPNALWCICRQPHNNRFMICCDRCEEWFHGDCVGISEARGRLLERNGEDYICPNCTI [Y8W], for which the abundance fitness was -0.154 ± 0.094.

GYDPNALHCICRQPHNNRFMICCDRCEEWFHGDCVGISEARGRLLERNGEDYICPNCTI [Y8H]: the abundance fitness was 0.03 ± 0.09.

For GYDPNSLYCICRQPHNNRFMICCDRCEEWFHGDCVGISEARGRLLERNGEDYICPNCTI [A6S], the abundance fitness is -0.511 ± 0.12.

Take GYDPNILYCICRQPHNNRFMICCDRCEEWFHGDCVGISEARGRLLERNGEDYICPNCTI [A6I]: the abundance fitness is -0.279 ± 0.12.

GYDPNRLYCICRQPHNNRFMICCDRCEEWFHGDCVGISEARGRLLERNGEDYICPNCTI [A6R]: the abundance fitness was -0.419 ± 0.068.
